Test: soluble on expression in E. coli; label from the status in PepcDB or PDB records

Sequence | soluble on expression in E. coli
MGSDKIHHHHHHMDKLASEYKVLIVDDVPTNVMLVQAILKKEGYTLLTCDSGTKALRIANEKHPNLILLDIMMPEMDGYEVLQHLKSNPETTDIPVIIMSALSDMQSIVKGYQLGATEYVTKPFQREELVKRVAHRYELYSIKRIKAELENTIESRDTLYSVIAHDLRSPLGSLKMMNNAILMMVDKERVGDEVYEMIQMMNKTSEEIFLLLDNLLKWAKNRLNKQHVYKQQTDINSIIDSTAEMYVPMAAQKGVKIILENLDKELVGLVDIDMLKTIIRNLISNAMKFSFEGGTITLSSRSEGDFVTVSVKDTGKGIKKEDQDKLLKQDSHFTTYGTKNEKGSGLGLMLCKDFVELHGGKLWFESEGEGKGTTFLFSMKALNQEA | not soluble
MGSDKIHHHHHHMGFEMTRGHLTWNDFKIVMAIANAGSLSGAARSLGVNHATVFRRLGDIERRLGVALFERSRKGYKPSLAGEELANTARIMDEAAHSAERKVAGRDLRPSGEIWVTTTDSLLMGLLAPLFKEFRNRYPDIVLDVAVANEMLNLTRREADVGIRPVNRPPENLIGRRLATVGQAIFGHRNLGLDKGQSIDFLSQQPWIGAGPRLQDSVLEQWMAQKNLADACVFRVDTLVGLLSAVNEGLGLAALPCYLAETCPDIVQLSDPIPELNYDLRKPLKVATHST | not soluble
MSLQKNGYRIQFTSSRIRDLMYRTTFDPKKMDGDIILNLSLIDKKDLDDVLGIFKMVISSGLSVTPYVKVISEGESIGDMTIEKGKVGIGTVCSITIDGVLLKAGIPVNPKLGGVVQIRNGIPVRFTDVLTYVSTTVDPLEILMSQGITSVSEMLRTGSGKVLANLREAPMVARDEIESNLSDLLDAGFSGILEVGEPNTRVLDVPIERDHLGIVVIGGTNPMAVVQEYGIPIDTSAMSRLISFKEMSRIEDLVEGHHHHHH | soluble
MSLKRTVDFSMFRCPLCDSSMDAASGKSLICTERGHTFDLSRHGYVNFLTKPVKTSYGAELFEARSRLIGECGFFDPLHDAIAELISHPKSGHEAFTILDSGCGEGSHLNALCGFDYAGKAAIGTGIDLSKDGILKASKAFKDLMWAVADVARAPFHDRQFDVVLSIFSPSNYAEFHRLLKNDGMLIKVVPRSDYLIELRQFLYTDSPRRTYSNTAAVERFTANAAHSRPVRLRYVKTLDQQAIHWLLKMTPLAWSAPKDRVSLLKEMKSADITVDVDILIGMKEGHHHHHH | soluble
MSLESSDVPRELIESIKDVIGRKIKISVKKKVKLEVKGDKVENKVLVLTSCRAFLVTARIPTKLELTFSYLEIHGVVCSKSAQMIVETEKCSISMKMASPEDVSEVLAHIGTCLRKIFPGLSPVRIMKKVSMEPSERLASLQALWDSQTVAEQGPCGGFSQMYACVCDWLGFSYREEVQWDVDTIYLTQDTRELNLQDFSHLDHRDLIPIIAALEYNQWFTKLSSKDLKLSTDVCEQILRVVSRSNRLEELVLENAGLRTDFAQKLASALAHNPNSGLHTINLAGNPLEDRGVSSLSIQFAKLPKGLKHLNLSKTSLSPKGVNSLSQSLSANPLTASTLVHLDLSGNVLRGDDLSHMYNFLAQPNAIVHLDLSNTECSLDMVCGALLRGCLQYLAVLNLSRTVFSHRKGKEVPPSFKQFFSSSLALMHINLSGTKLSPEPLKALLLGLACNHNLKGVSLDLSNCELRSGGAQVLEGCIAEIHNITSLDISDNGLESDLSTLIVWLSKNRSIQHLALGKNFNNMKSKNLTPVLDNLVQMIQDEESPLQSLSLADSKLKTEVTIIINALGSNTSLTKVDISGNGMGDMGAKMLAKALQINTKLRTVIWDKNNITAQGFQDIAVAMEKNYTLRFMPIPMYDASQALKTNPEKTEDALQKIENYLLRNHETRKEGHHHHHH | soluble
GPGSMMMQRSQKMLLDPASFIERPPRNTLFNIVPQGHEYVVERLGRYHRTLDSGWWVVVPFIDKIRYNYNVKEQGIEIPNQSAITSDNVMVEIDGVLFLKIVDSCKASYNIENPVFNLINLAQTTMRSEIGRMSLDSLFRERASLNQSTVEVLRREANEWGIECKRYEIRDIVVSELVRRSMDLQAEAERKKRKLILESEGESTATINRANGMKIAQQCVADAEKYTAERQSEGAAAAIRVKAAAVSDNISIVSDAIEKAK | not soluble
MPDRHVASSETKRGGAGMTDRELSDQAIAVLVDVARTAGRDLNAGQRLELDRLVSDGLVAVSTSGDPAGQRHYRLTVAGQTALDQRGVGANEA | not soluble

Source: the DeepSol protein solubility set
